Values quoted from earlier work as cited in PMC5000552.

Target: BCL6 (Homo sapiens) (UniProt P41182)

Sequence of BCOR (Q6W2J9 whole entry): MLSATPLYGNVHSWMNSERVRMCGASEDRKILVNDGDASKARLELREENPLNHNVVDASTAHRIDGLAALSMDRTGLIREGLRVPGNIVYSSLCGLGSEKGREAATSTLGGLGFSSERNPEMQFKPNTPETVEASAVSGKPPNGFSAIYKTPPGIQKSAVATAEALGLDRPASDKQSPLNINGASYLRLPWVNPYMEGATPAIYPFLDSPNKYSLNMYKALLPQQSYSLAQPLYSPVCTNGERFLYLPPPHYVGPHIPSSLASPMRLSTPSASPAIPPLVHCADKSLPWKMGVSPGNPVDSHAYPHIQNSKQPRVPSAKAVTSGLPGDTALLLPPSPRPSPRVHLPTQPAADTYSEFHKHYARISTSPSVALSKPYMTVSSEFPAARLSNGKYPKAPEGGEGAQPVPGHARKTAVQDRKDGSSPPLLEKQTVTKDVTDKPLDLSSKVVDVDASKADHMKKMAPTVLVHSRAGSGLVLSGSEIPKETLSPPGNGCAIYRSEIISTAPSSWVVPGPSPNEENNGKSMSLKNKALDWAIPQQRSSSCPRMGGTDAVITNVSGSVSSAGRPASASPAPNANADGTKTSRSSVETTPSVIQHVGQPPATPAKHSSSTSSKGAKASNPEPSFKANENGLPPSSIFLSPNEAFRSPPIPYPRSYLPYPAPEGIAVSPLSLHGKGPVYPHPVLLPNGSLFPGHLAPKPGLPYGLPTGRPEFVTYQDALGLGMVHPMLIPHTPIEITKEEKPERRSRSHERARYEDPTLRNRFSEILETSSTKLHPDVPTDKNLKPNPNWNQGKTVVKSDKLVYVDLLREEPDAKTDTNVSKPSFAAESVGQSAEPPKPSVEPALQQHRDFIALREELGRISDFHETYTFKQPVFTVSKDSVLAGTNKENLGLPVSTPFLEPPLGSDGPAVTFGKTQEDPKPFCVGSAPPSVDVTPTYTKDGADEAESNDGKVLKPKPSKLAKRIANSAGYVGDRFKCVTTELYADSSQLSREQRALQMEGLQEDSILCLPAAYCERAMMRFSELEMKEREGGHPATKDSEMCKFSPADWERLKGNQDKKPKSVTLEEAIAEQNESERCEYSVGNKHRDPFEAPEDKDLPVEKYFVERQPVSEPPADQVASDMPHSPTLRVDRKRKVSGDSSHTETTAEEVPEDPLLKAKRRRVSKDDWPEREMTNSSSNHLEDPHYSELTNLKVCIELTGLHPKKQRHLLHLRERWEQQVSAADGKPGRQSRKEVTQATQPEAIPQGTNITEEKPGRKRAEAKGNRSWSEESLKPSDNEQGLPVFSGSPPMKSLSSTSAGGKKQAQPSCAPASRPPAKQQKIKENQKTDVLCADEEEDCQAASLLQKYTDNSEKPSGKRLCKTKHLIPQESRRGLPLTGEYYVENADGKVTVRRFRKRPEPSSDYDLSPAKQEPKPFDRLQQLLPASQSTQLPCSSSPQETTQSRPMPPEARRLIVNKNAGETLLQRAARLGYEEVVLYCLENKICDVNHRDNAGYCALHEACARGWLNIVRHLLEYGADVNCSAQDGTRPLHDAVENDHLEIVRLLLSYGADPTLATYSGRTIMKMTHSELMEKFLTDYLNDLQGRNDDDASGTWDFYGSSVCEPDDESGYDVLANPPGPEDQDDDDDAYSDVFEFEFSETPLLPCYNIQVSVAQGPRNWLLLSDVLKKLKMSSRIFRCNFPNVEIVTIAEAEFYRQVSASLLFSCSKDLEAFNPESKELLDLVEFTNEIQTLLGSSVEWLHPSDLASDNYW

BCOR (from UniProt Q6W2J9)
Kd: 20 µM
